# Source: patent US20260265334A1, “STAPLED PEPTIDES” (THE FLOREY INSTITUTE OF NEUROSCIENCE AND MENTAL HEALTH, priority 2023, published 2026)
# Where two headings read alike, the source gives them in different places. Bridge positions count the residues as written; N and C are the ends. Square brackets hold non-standard residues; d marks the D form. Ends that are not written are not given here. Peptide text beside a SMILES is read from it. I, II: the chains in the order shown. ξ: configuration not given here. αMeF = C[C@](N)(Cc1ccccc1)C(=O)O; S5 = C=CCCC[C@](C)(N)C(=O)O; αMeC = C[C@](N)(CS)C(=O)O; ξF = NC(Cc1ccccc1)C(=O)O
# B1: Native INSL5 (human insulin-like peptide 5) (ligand)
# chain 1: ZDLQTLCCTDGCSMTDLSALC
# chain 2: KESVRLCGLEYIRTVIYICASSRW
# B2: αF stapled analogue (INSL5 B-chain, Formula V) (peptide)
# peptide: SGL[αMeF]YIR[αMeF]VIYISGGSRW
# notes: 18-residue RXFP4 agonist; also called aF stapled analogue; πI5B
# B3: πI5B7-24-GG-S19E (peptide)
# peptide: SGL[αMeF]YIR[αMeF]VIYIEGGSRW
# notes: 18-residue RXFP4 agonist with two αF residues and glutamic acid at residue 19 (numbering of native INSL5 B chain)
# B4: Linear B-chain (INSL5 B chain analogue, Formula IV) (peptide)
# peptide: SGLEYIRTVIYISGGSRW-OH
# notes: Residues numbered 7-24 after the native INSL5 B chain; also called control
# B5: INSL5-A13: B7-24_G20/21 (two-chain G20/21 analogue) (ligand)
# chain 1: CTDGASMKDLSALC
# chain 2: CGLEYIRTVIYICGGSRW
# notes: GlyGly at positions B20 and B21; also called Formula III
# B6: INSL5-A13: B7-24 (reduced two chain analogue) (ligand)
# chain 1: CTDGASMKDLSALC
# chain 2: CGLEYIRTVIYICASSRW
# modifications: not fully specified; cysteine pairing not given here
# notes: also called Formula II
# B7: INSL5-A13 (two-chain INSL5 analogue, RXFP4 agonist) (ligand)
# chain 1: CTDGASMKDLSALC
# chain 2: KESVRLCGLEYIRTVIYICASSRW
# modifications: disulfide I:1-II:7, I:14-II:19
# notes: Disulfide bonds: Cys 1 of A chain to Cys 7 of B chain; Cys 14 of A chain to Cys 19 of B chain; also called Analogue 13; two chain agonist
# Key:
# [1] = molecular target: T1, RXFP3 (Homo sapiens, UniProt Q9NSD7); test: Eu-H3B1-22R competition binding assay in CHO-K1-RXFP3 cells; details: 5 nM Eu-H3B1-22R, mean ± SEM (n)
# T1 construct: expressed in transfected cells
# T1 sequence (Q9NSD7 1-469): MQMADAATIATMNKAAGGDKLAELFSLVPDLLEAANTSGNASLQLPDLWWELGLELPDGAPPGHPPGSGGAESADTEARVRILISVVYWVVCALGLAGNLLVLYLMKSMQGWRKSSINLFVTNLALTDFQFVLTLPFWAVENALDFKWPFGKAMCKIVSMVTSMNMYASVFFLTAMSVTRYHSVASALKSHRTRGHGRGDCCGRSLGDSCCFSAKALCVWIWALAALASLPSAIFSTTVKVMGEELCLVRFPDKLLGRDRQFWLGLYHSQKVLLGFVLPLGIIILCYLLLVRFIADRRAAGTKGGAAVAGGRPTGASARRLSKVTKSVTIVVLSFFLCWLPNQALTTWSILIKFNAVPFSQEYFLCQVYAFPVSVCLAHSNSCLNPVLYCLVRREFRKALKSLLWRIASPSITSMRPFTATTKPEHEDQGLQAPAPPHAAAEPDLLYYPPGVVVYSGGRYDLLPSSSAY
# Description: An Eu-H3B1-22R competition binding assay was conducted in CHO-K1-RXFP3 cells.
# (§1) Competition binding curves for each peptide were performed in triplicate and each experiment was performed independently at least three times. Fluorescent measurements were carried out at excitation of 340 nm and emission of 614 nm on a BMG POLARstar plate reader (BMG Labtech, Melbourne, Australia). Pooled data were presented as mean±S.E.M. of specific binding and are fitted using a one-site binding curve in GraphPad Prism version 8 (GraphPad Inc., San Diego, USA). Statistical analyses were conducted using one-way analysis of variance with uncorrected Fisher's least significant difference (LSD) post-hoc analysis in GraphPad Prism version 9.
# (§2) Competition binding and cAMP activity assay were conducted by a procedure analogous to that described above for Example 3. The results are shown in FIG. 24 (RXFP3) and FIG. 25 (RXFP4).
# [2] = molecular target: T2, RXFP4 (Homo sapiens, UniProt Q8TDU9); test: Eu-R3/I5 competition binding assay in CHO-K1-RXFP4 cells; parameters: expressed in transfected cells
# T2 sequence (Q8TDU9 whole entry): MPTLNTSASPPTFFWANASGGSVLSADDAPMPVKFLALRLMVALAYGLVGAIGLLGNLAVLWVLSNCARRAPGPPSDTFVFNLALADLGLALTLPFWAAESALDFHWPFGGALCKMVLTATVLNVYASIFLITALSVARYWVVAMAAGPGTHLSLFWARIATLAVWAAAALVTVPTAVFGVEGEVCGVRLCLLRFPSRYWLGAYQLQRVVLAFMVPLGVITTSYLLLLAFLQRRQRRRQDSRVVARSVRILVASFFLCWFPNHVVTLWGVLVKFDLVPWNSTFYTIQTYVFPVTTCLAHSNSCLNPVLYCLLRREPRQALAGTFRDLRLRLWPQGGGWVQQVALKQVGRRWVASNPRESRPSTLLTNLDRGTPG
# Description: An Eu-R3/15 competition binding assay in CHO-K1-RXFP4 cells was carried out.
# as §1
# (§3) An additional analogue of INSL5 was utilised as a control, INSL5-A13, having an A chain (SEQ ID NO: 9) and a B chain (SEQ ID NO: 10) with a first disulfide bond between Cys 1 of the A chain and Cys 7 of the B chain, and a second disulfide bond between Cys 14 of the A chain and Cys 19 of the B chain:
# as §2
# [3] = molecular target: T1, RXFP3; test: Inhibition of forskolin-induced cAMP activity in CHO-K1-RXFP3 cells (pCRE β-galactosidase reporter); assay type: cell-based; details: 5 μM forskolin, 6 hours
# Description: Since RXFP3 is coupled to Gi/o proteins, peptides were tested for their ability to activate RXFP3 as measured via their ability to inhibit forskolin-induced cAMP activity in CHO-K1-RXFP3 or CHO-K1-RXFP4 cells transfected with a pCRE (cAMP Response Element) β-galactosidase reporter plasmid (as described in Belgi, A et al., Structure and function relationship of murine insulin-like peptide 5 (INSL5): free C-terminus is essential for RXFP4 receptor binding and activation. Biochemistry 2011, 50 (39), 8352-61; and Haugaard-Kedstrom, L. M et al., Synthesis and pharmacological characterization of a europium-labelled single-chain antagonist for binding studies of the relaxin-3 receptor RXFP3. Amino Acids 2015, 47 (6), 1267-71). For agonist assays, cells were stimulated with forskolin (5 μM for RXFP3, 1 μM for RXFP4)±increasing concentrations of each peptide for 6 hours. Data were expressed as the % forskolin activity, whereby 100% was defined as forskolin alone and 0% as maximum agonist stimulation (1 μM Analogue 2 for RXFP3 and 1 μM Analogue 13 for RXFP4). Data were analysed and plotted using GraphPad Prism 9 and are expressed as the mean±SEM of the pooled data. Statistical analysis was conducted using one-way ANOVA with Uncorrected Fisher's LSD post-hoc analysis using GraphPad Prism 9.
# as §2
# [4] = molecular target: T2, RXFP4; test: Inhibition of forskolin-induced cAMP activity in CHO-K1-RXFP4 cells (pCRE β-galactosidase reporter); assay type: cell-based; parameters: expressed in transfected cells; details: for cAMP pEC50: RXFP4, CHO-K1-RXFP4 cells, 1 μM forskolin, 6 hours, Table 3
# Description: For agonist assays, cells were stimulated with forskolin (5 μM for RXFP3, 1 μM for RXFP4)±increasing concentrations of each peptide for 6 hours. Data were expressed as the % forskolin activity, whereby 100% was defined as forskolin alone and 0% as maximum agonist stimulation (1 μM Analogue 2 for RXFP3 and 1 μM Analogue 13 for RXFP4). Data were analysed and plotted using GraphPad Prism 9 and are expressed as the mean±SEM of the pooled data. Statistical analysis was conducted using one-way ANOVA with Uncorrected Fisher's LSD post-hoc analysis using GraphPad Prism 9.
# as §3, §2
# [5] = molecular target: T3, RXFP4 (relaxin family peptide receptor 4) on CHO-K1-RXFP4 cells (UniProt Q8TDU9 1-374, limits assumed); test: competition with Eu-R3/I5 on CHO-K1-RXFP4 cells
# T3 construct: whole, on cells; also called INSL5 receptor
# T3 sequence (Q8TDU9 whole entry): as above
# [6] = molecular target: T4, RXFP3 (relaxin family peptide receptor 3) on CHO-K1-RXFP3 cells (UniProt Q9NSD7 1-469, limits assumed); test: competition with Eu-H3B1-22R on CHO-K1-RXFP3 cells
# T4 construct: whole, on cells; also called GPCR135
# T4 sequence (looked up): T1 sequence (Q9NSD7 1-469)
# [7] = molecular target: T5, LgBiT-RXFP4 (HEK-LgBiT-RXFP4 crude membrane fractions) (UniProt Q8TDU9 1-374); test: NanoBiT competition with 2 nM SmBiT-R3/I5 on HEK-LgBiT-RXFP4 membranes
# T5 construct: Assayed as crude membrane fractions (25 µg protein) of HEK cells; not shown: LgBiT tag of NanoBiT
# T5 sequence (Q8TDU9 whole entry): as above
# [8] = molecular target: T3, RXFP4 (relaxin family peptide receptor …); test: cell-based or functional assay
# [9] = molecular target: T3, RXFP4 (relaxin family peptide receptor …); test: competition with Eu-R3/I5 on CHO-K1-RXFP4 cells; remark: listed apart in the source
molecule,measurement,setting,value
CC[C@H](C)[C@H](NC(=O)[C@H](Cc1ccccc1)NC(=O)C(Cc1ccccc1)NC(=O)[C@H](CCCNC(=N)N)NC(=O)CNC(=O)[C@@H](N)CO)C(=O)N[C@@H](CCCNC(=N)N)C(=O)NC(Cc1ccccc1)C(=O)N[C@H](C(=O)N[C@H](C(=O)N[C@@H](Cc1ccccc1)C(=O)N[C@H](C(=O)N[C@@H](CO)C(=O)NCC(=O)NCC(=O)N[C@@H](CO)C(=O)N[C@@H](CCCNC(=N)N)C(=O)N[C@@H](Cc1c[nH]c2ccccc12)C(=O)O)[C@@H](C)O)[C@@H](C)CC)C(C)C (stereo partly drawn) [H3B10-27(13/17F)] (H-SGR[ξF]FIR[ξF]VIFTSGGSRW-OH; N-terminus assumed),Ki,"[1]; Table 2, read-out: Eu-H3B1-22R pKi (converted)",> 10000 nM
same,Eu-R3/I5 pKi,"[2]; RXFP4, CHO-K1-RXFP4 cells, 5 nM Eu-R3/I5, Table 3",No binding (3)
same,EC50,"[3]; Table 2, read-out: cAMP pEC50 (converted)",> 10000 nM
same,cAMP pEC50,[4],No activity (4)
CC[C@H](C)[C@H](NC(=O)[C@H](Cc1ccc(O)cc1)NC(=O)[C@@H](NC(=O)[C@@H](NC(=O)[C@]1(C)CSSC[C@](C)(NC(=O)[C@H](CC(C)C)NC(=O)CNC(=O)[C@H](CO)NC(C)=O)C(=O)N[C@@H](Cc2ccc(O)cc2)C(=O)N[C@@H]([C@@H](C)CC)C(=O)N[C@@H](CCCNC(=N)N)C(=O)N1)C(C)C)[C@@H](C)CC)C(=O)N[C@@H](CO)C(=O)NCC(=O)NCC(=O)N[C@@H](CO)C(=O)N[C@@H](CCCNC(=N)N)C(=O)N[C@@H](Cc1c[nH]c2ccccc12)C(=O)O [Disulfide bridge stapled analogue] (Ac-SGL[αMeC]YIR[αMeC]VIYISGGSRW-OH; disulfide 4-8; C-terminus assumed),Ki,[2],46.8 nM
same,EC50,[4],145 nM
CC[C@H](C)[C@@H]1NC(=O)[C@H](Cc2ccccc2)NC(=O)[C@H](CCC(=O)O)NC(=O)[C@H](CCCNC(=N)N)NC(=O)CNC(=O)[C@@H](NC(=O)[C@H](CC(C)C)NC(=O)[C@H](CCCNC(=N)N)NC(=O)[C@@H](NC(=O)CNC(=O)[C@H](Cc2ccc(O)cc2)NC(=O)[C@@H]2CCCN2C(=O)[C@H](C)NC(=O)[C@H](C)NC(=O)[C@@H](N)CCCNC(=N)N)C(C)C)CSSC[C@@H]2NC(=O)[C@@H](NC(=O)[C@H](CO)NC(=O)[C@H](CO)NC(=O)[C@H](CO)NC(=O)[C@H](CC(C)C)NC(=O)CNC(=O)[C@H](C)NC(=O)[C@H](CC(C)C)NC(=O)[C@@H](NC(=O)[C@@H](N)CC(=O)O)C(C)C)CSSC[C@H](NC(=O)CNC(=O)[C@H](Cc3c[nH]c4ccccc34)NC(=O)[C@H](CCCCN)NC2=O)C(=O)N[C@@H](CO)C(=O)N[C@@H](CCCCN)C(=O)N[C@@H](CO)C(=O)N[C@@H](CCC(=O)O)C(=O)N[C@@H]([C@@H](C)CC)C(=O)N[C@@H](CO)C(=O)N[C@@H](CO)C(=O)N[C@@H](CC(C)C)C(=O)N[C@H](C(=O)O)CSSC[C@@H](C(=O)NCC(=O)NCC(=O)N[C@@H](CO)C(=O)N[C@@H](CCCNC(=N)N)C(=O)N[C@@H](Cc2c[nH]c3ccccc23)C(=O)O)NC(=O)[C@H]([C@@H](C)O)NC(=O)[C@H](Cc2ccccc2)NC(=O)[C@H]([C@@H](C)CC)NC(=O)[C@H](C(C)C)NC(=O)[C@H](C)NC(=O)[C@H](CCCNC(=N)N)NC1=O [H3 relaxin],Eu-H3B1-22R pKi,[1]; Table 2,7.64 ± 0.09 (4)^
same,cAMP pEC50,[3]; Table 2,9.08 ± 0.07 (5)
same,cAMP pEC50,[4],8.94 ± 0.13 (4)
"SGLEYIRTVIYISGGSRW-OH [Linear B-chain, S-G-L-E-Y-I-R-T-V-I-Y-I-S-G-G-S-R-W-OH]",Eu-R3/I5 pKi,"[2]; RXFP4, Table 5",No binding (3)
"SGRFFIRFVIFTSR (14 residues) [H3B10-22R13/17FF (Formula XIII, non-alpha-methylated analogue of Formula X)]",binding result,[5],no binding
same,pKi,[6],6.67
"SGLKYIRDVIYISGASRW (lactam 4-8) [Lactam Bridge stapled analogue (INSL5 B-chain, Formula VII)]",pKi,[7],6.45
B1,cAMP pEC50,[8],8.34
same,pKi,[9],8.43
same,pKi,[7],8.47
B2,cAMP pEC50,[8],7.06
same,pKi,[9],6.8
same,pKi,[7],7.51
"Ac-SGL[S5]YIR[S5]VIYISGASRW (staple 4-8) [Hydrocarbon stapled analogue (INSL5 B-chain, Formula VI)]",cAMP pEC50,[8],6.18
same,pKi,[7],6.81
B3,cAMP pEC50,[8],7.39
same,pKi,[7],8.13
B4,cAMP pEC50,[8],< 5
same,binding result,[9],no binding
B5,cAMP pEC50,[8],8.93
same,pKi,[7],8.64
B6,cAMP pEC50,[8],8.08
same,pKi,[7],8.06
"Ac-SGL[αMeC]YIR[αMeC]VIYISGGSRW (disulfide 4-8, also called disulfide stapled analogue) [Disulfide bridge stapled analogue (INSL5 B-chain, Formula IX)]",cAMP pEC50,[8],6.84
same,pKi,[9],7.33
B7,cAMP pEC50,[8],8.1
same,pKi,[9],7.46
same,pKi,[7],8.11
"SGREFIRAVIFTSR (14 residues) [H3B10-22R13/17EA (Formula XII, truncated form of H3B1-22R)]",binding result,[5],no binding
same,pKi,[6],6.08
